Test results from patent publication US6222018, “Hypoxia inducible factor-1 and method of use” (The Johns Hopkins University School of Medicine).

Legend:
[1] = molecular target: T1, HIF-1 (HIF-1alpha/HIF-1beta (ARNT) heterodimer), affinity-purified (Homo sapiens, UniProt Q16665;P27540 Q16665:1-826,P27540:2-789); experiment: EMSA; competed by unlabeled W18 but not M18; buffer Z-100; conditions: tags: none; from CoCl2-treated HeLa S3 cells or hypoxic Hep3B cells; chain copies: heterodimer (inferred), higher-order form also seen; 5' gatc overhangs
Experimental: Nuclear extracts were fractionated by DEAE-Sepharose chromatography, and fractions containing HIF-1 activity were applied to a W18 DNA affinity column. 5 ug of protein were incubated with 0.1 ug of calf thymus DNA for gel shift analysis of crude nuclear extract (Crude NE, lane 1) and HIF-1 active fractions from DEAE-Sepharose columns (DEAE, lane 2). For fractions from the W18 column (lanes 3–13), 1 ul aliquots were incubated with 5 ng of calf thymus DNA. The positions of the two HIF-1 bands, constitutive activity (C), nonspecific activity (NS), and free probe (F) are indicated. FT, flowthrough, 0.25M, 0.5M, 1M, and 2M are fractions eluted with indicated concentration of KCl in buffer Z. Figure 3B: FIG. 3B is an autoradiograph showing sequence-specific DNA binding of the partially purified fractions described in the legend to FIG. 3A. 5 ug aliquots of fractions from the DEAE-Sepharose column were incubated with W18 probe in the presence of no competitor (lane 1), 10-fold (lanes 2 and 5), 50-fold (lanes 3 and 6), or 250-fold (lanes 4 and 7) molar excess of unlabeled W18 (W, lanes 2–4) or M18 (M, lanes 5–7) oligonucleotide.
Since HIF-1 DNA binding activity from hypoxic Hep3B cells and CoCl_2-treated HeLa cells are indistinguishable (Example 1), HeLa S3 cells treated with 125 uM CoCl_2 were used as starting material for the large scale purification of HIF-1. […]

[2] = molecular target: T1, HIF-1 (HIF-1alpha/HIF-1beta (ARNT) …); experiment: competition; up to 250-fold excess M18 does not compete; HIF-1 flows through M18 column; conditions: tags: none; from CoCl2-treated HeLa S3 cells or hypoxic Hep3B cells; chain copies: heterodimer (inferred), higher-order form also seen; 5' gatc overhangs
[3] = molecular target: T2, endogenous HIF-1 in hypoxic Hep3B cells (Homo sapiens, UniProt Q16665;P27540 Q16665:1-826,P27540:2-789); experiment: cell_activity; psvcatEPO2, two copies, 1% vs 20% O2; one copy 4.9-fold; conditions: chain copies: heterodimer (inferred)
Source text: Oligonucleotides were cloned into the BglII and BamHI sites located 5' and 3' to the transcription unit, respectively. Plasmids pNMHcat and pHcat (Concordet et al. (1991) Nucleic Acids Res. 19:4173–4180), containing human aldolase A gene sequences fused directly to CAT coding sequences, were provided by P. Maire. pSVβgal (Promega) contained bacterial lacZ coding sequences driven by the SV40 early region promoter and enhancer. Plasmids were purified by alkaline lysis and two rounds of cesium chloride density gradient centrifugation. Hep3B cells were transfected by electroporation with a Gene Pulser (Bio-Rad) at 260 V and 960 microfarads. Duplicate electroporations were pooled and split onto two 10 cm tissue culture dishes (Corning) containing 8 ml of media. […]
To determine whether these HIF-1 binding sites were of functional importance, transient expression essays were performed using the reporter genes described above. […] Transfected cells were split among duplicate plates that were cultured in 1 or 20% O_2 for 48 h, CAT and β-galactosidase protein synthesized following transcription of reporter and control plasmids, respectively, were quantitated from cellular extracts. […]

[4] = molecular target: T2, endogenous HIF-1 in hypoxic Hep3B cells; experiment: cell_activity; pPFKL3svcat, three copies, 1% vs 20% O2; conditions: chain copies: heterodimer (inferred); 5' GATC overhang
Experimental: (§1) Plasmids were purified by alkaline lysis and two rounds of cesium chloride density gradient centrifugation. Hep3B cells were transfected by electroporation with a Gene Pulser (Bio-Rad) at 260 V and 960 microfarads. Duplicate electroporations were pooled and split onto two 10 cm tissue culture dishes (Corning) containing 8 ml of media. Cells were allowed to recover for 24 h in a 5% CO_2 95% air incubator at 37° C., the media was replaced, and one set of duplicate plates was removed to a modular incubator chamber, which was flushed with 1% O_2, 5% CO_2, balance N_2, sealed, and placed at 37° C. Cells were harvested 72 h after transfection, and extracts were prepared for CAT and β-galactosidase activity.
(§2) To determine whether these HIF-1 binding sites were of functional importance, transient expression essays were performed using the reporter genes described above. Reporter plasmids were cotransfected into Hep3B cells with pSVβgal, which was included as a control for variation in transfection efficiency. Transfected cells were split among duplicate plates that were cultured in 1 or 20% O_2 for 48 h, CAT and β-galactosidase protein synthesized following transcription of reporter and control plasmids, respectively, were quantitated from cellular extracts. […]
(§3) HIF-1 binding site sequences from glycolytic genes were analyzed in the same assay. […]

[5] = molecular target: T2, endogenous HIF-1 in hypoxic Hep3B cells; experiment: cell_activity; pPGK2svcat, two copies, 1% vs 20% O2; conditions: chain copies: heterodimer (inferred); 5' GATC overhang
Experimental: as §1, §2, §3

T2 sequence (Q16665 whole entry, chain 1 of 2, the tested form may be a part): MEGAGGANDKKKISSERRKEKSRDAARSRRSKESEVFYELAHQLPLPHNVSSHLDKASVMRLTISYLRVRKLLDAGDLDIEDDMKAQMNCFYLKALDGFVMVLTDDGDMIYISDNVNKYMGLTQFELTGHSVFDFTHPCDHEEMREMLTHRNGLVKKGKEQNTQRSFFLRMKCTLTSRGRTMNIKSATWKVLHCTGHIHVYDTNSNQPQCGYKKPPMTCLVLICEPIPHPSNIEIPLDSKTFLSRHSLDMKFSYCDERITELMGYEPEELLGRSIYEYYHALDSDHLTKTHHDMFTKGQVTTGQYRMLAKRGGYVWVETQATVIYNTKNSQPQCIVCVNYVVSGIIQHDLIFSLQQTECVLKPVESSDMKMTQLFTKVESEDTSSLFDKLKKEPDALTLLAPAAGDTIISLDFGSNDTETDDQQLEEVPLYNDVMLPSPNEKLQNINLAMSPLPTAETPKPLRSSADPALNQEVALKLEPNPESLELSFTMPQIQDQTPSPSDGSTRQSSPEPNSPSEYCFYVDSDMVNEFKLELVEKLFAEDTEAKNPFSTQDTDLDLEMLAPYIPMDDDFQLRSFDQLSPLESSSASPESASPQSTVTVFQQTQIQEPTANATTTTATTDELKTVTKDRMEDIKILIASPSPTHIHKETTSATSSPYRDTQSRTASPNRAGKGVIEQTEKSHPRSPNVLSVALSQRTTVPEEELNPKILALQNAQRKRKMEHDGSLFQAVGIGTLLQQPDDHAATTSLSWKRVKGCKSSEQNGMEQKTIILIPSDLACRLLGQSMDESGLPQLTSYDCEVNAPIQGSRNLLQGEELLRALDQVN
T2 sequence (P27540 2-789, chain 2 of 2): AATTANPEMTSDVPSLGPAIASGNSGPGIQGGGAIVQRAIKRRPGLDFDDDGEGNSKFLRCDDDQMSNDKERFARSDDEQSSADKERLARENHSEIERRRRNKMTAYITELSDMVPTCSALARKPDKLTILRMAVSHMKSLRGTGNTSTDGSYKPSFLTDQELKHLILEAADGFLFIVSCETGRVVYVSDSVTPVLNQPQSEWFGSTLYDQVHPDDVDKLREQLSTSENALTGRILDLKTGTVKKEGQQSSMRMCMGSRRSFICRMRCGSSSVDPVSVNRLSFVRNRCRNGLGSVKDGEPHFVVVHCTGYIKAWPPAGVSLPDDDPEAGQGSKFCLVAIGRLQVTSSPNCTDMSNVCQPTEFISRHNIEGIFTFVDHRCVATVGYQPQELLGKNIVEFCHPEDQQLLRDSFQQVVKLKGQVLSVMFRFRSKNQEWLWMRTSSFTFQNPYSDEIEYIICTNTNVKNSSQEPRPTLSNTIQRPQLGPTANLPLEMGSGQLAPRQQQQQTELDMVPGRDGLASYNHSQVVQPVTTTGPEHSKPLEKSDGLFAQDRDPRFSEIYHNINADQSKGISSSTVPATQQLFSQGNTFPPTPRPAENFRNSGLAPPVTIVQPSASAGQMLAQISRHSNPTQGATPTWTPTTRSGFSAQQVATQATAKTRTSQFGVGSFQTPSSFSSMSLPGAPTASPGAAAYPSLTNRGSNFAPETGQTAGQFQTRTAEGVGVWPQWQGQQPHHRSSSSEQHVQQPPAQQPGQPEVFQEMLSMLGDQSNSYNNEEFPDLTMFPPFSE
T1 sequence (Q16665 whole entry, chain 1 of 2): as the sequence (Q16665 whole entry, chain 1 of 2, the tested form may be a part) above
T1 sequence (P27540 2-789, chain 2 of 2): as the sequence (P27540 2-789, chain 2 of 2) above

B1: W18 (hEPO 3'-FS nt 1-18) (dsDNA)
DNA 1: GATCGCCCTACGTGCTGTCTCA
DNA 2: GATCTGAGACAGCACGTAGGGC
- binding result [1]: binds

B2: M18 (dsDNA)
DNA 1: GATCGCCCTAAAAGCTGTCTCA
DNA 2: GATCTGAGACAGCTTTTAGGGC
- binding result [2]: no binding

B3: hEPO 3'-FS +3065/+3097 (dsDNA)
DNA 1: GCCCTACGTGCTGTCTCACACAGCCTGTCTGA
DNA 2: TCAGACAGGCTGTGTGAGACAGCACGTAGGGC
- activity [3]: 17 fold induction

B4: mPFKL IVS-1 +336/+361 (dsDNA)
DNA 1: GATCCCGGGTAGCTGGCGTACGTGCTGCAG
DNA 2: CTGCAGCACGTACGCCAGCTACCCGGGATC
- activity [4]: 47 fold induction

B5: hPGK1 5'-FS -172/-194 (dsDNA)
DNA 1: GATCGTGAGACGTGCGGCTTCCGTTTG
DNA 2: CAAACGGAAGCCGCACGTCTCACGATC
- activity [5]: 5.6 fold induction
